Assay results from a protein production outcome set (Wang et al. 2014).

Test: label from the status in PepcDB records

| Sequence | protein production |
| --- | --- |
| MAAGTFTAQNKVRPGVYINFKSEPQAAGTLGERGIVSMPLILSWGEPGKMITIEAGDDVFPKLGYSIMDAQLRLINEALKRAKTLLLYRLNAGTKAAVTVGNLTVTAKWGGARGNDITLVIQENIDDETKFDVSTLVDGAELDKQTVSDIAGLAANDWVIFSGTGALTETAGAPLINGSDGAVTNQAYIDYLAAVEIFDFNTIALPSTDDALKATFTAFAKRLRDDEGKKIQVVLENYPAADYEGVISVKNGVVLADGTILTAAQATAWVAGATAGARVNESLTYQGYDEAVDVAPRYTNAQIIAALQAGEFLFTASDNQALVEQDINTLTSFTADKGKQFAKNRVIRVLDGINNDFVRIFSKFYIGKVSNNADGRNLLKSECINYMNTLQDIDAIKNFDGQTDLTVQSGNDVDAVYIEAYAWPVDSIEKIYVRVRIKLEHHHHHH | not failed |
| MAAIDAALKAGEKILSIYEDPKSDFEIERKADNSPLTIADRKAHEAIVAILNETPFPVLSEEGKHMDYAVRRGWDTLWIVDPLDGTKEFIKRNGEFTVNIALVQNAVPVMGVIYVPVKKELYFAVEGTGAYKCSGIVGLEDEGVTLQQMIEKSERMPLADARDHFIAVASRSHLTPETETYIADLKKKHGNVELISSGSSIKICLVAEGKADVYPRFAPTMEWDTAAGHAIARAAGMEVYQAGKEEPLRYNKEDLLNPWFIVEAKRER | not failed |
| MAAKRLAVLCIFLLPNTQFRQLRLAETAEELPQLLREAEKASWTYLEFLESITRYELAKREAKSLEKRMKWARFPFVKSLDEFELRGQNVLTARQLSQLRELSWLEQQYNLILLGPPGIGKTYIAIGLGLEAVYRGFHVYFATMGELVQLLKSEEYLNKSKVQLKRIRNADLVIIDDLMYMAMDQREANLFFHLINHLYERSSIILTSNKSPEEWGHLIGDQGITTAILDRLLHRVEVIHGGENEESHRMKNRKSIFSAEVLEHHHHHH | failed |
| MAALWAAEAALTPGEVQAELASDLARTTVTTILSRLYDKGVVDRRGVAMVTTPCRTPRGSPPGACIPSSTVTLTGRPSWPASSPSSIRTTNSFCASYWRPTRDDRPLLIPLLLPFVMPLLARRALDRLAPATALWALTAAALVLAGACVTALGALVLTGLLKLPAFAALGELAHPLRTPTGYLVLPAAAIATGLLTIGAWTLAHSALRQTRAFRTARAEADRRPTAGDLCVVDSPHPDAYALPGRPHRIVVTTAMLRSLKPDERDALFAHERAHNQGATTASWSIGSAACRPGRMVSYLGACGARRAGPMRGRRGPRAIPVVCRPVPRSCRGRIVGVSLPSARW | failed |
| MAANGVSSGACAVSEEEARSEAERLLADPRLHVSDRHRAFLRYIVDARFEGRSDTIKAYSIAIDVFKRPASFDPSSDPIVRIEATRLRESLQKYYAQLADEPGARLDIPRGRYVPVFVERDNPPCPEEDGELEDVGLPTEEPTQAASRPEGRNWRHAIMGGAALAAVSLTGSLAYLAASAAHLNTQKPFVALSINASQNDKAAGEAVMEDLAVSLARFGTVRLKSGASGSRVPSDAMEQSLYEINMRYAENESSVSLWWQVSDAANGEAVWTDEERRPVAAGSREEAMRDLVFAVSRRLARPAGIINTIELRRNLPSSTIGNVCVLRGEFAVEQRDAAGLEAARSCLAATIASDPTDADAMATLARVYVWIGRATGDDSYFGRGLELANRAATLSPSSPRAALAQLGVQYQLGQNEISIAAGRRGVALNPENADLLAKLSMVVFLTGHWDEGVQLARQATEIAGQPIRDASFVMILNDYRQERYAQAVFLARQVPAPDAPTTVLKLAAIARLGDRPVTQQEIAAARLQHPDLERTVTAMFSGARYDSNLRDALRAGILEAGLKMPELASNGAM | failed |
| MAANNRRMSGKKGAQVGSGGKRRRGLEGKGPTPPAEMRKGHAKQRAANAKARRTTGGRPQQRRGGGRSTSELVVGRNPVYEALREGVPASTLYVQQFIDNDERVREALQLAAERGGINLMEAPRPELDRMTNGLNHQGLVLQVPPYEYAHPEDLVAAAHDEGIDPLIVALDGVTDPRNLGAVVRSVSAFGGHGVVVPERRAAGMTAGAWKTSAGTAARTPVARATNLTRALEQYQKAGITVVGLAADGEAELGDLAALDGPVVIVVGSEGKGLSRLVGETCDFRVRIPMPGGAESLNAGVAAGIVLYEAARRRS | failed |
| MAANNRSDHGSDENTRLYNPYQNYEVPINKSQYLYKLPTSPEFLFTEEALRQRRSWGENLTFYTGTAYLGGSVAGASVGVITGVKSFESGDTTKLKINRILNSSGQTGRTWGNRIGIIGLVYAGIESGIVAATDRDDVWTSVVAGLGTGAVCRAARGVRSAAVAGALGGLAAGAVVAGKQIVKRYVPI | failed |
| MAANSNSRVASNHTSKKQKVRRNIHPFTNNTRIKRASKIVKFNDSGEGDHVSDQRSNKENVLTYKSLKSRASDLLKMRETLPVYQHKREIMSYIESNPVTVLIGETGSGKSTQIPQFVLEKLYDTKKHGSIAVTQPRRVAAINLATRVAQEHGCKLGEQVGYSVRFDNTTTTRTRLKYLTDGMLLRELMMNSDLREYSVIVIDEAHERTVLTDLILGFLKSLIQGPRPDLRIIVMSATLQAEKFSEFFNNAPILFVEGRKFDVKQYYLKAPTDDIVDAVIRCCIQINQGEELGDILCFLPGQEEIDKAVTIMEKIAKYVSDEAPVPLIVPYPLYAALPAVQQSLVFAPIKGFKRKVVFSTNIAETSVTISGVKFVVDSGLRKVKVWRHQLGLATLLTVPISQASAMQRSGRAGRESEGKSFRLYCESDYVKLPKQSEPEIARSDVTSPVLMLKRYGVDDLLNWTWFENPGKEAIVMGLQELYELGALDTRGKITKRGQQMALLPLQPHLSSVLIKASEVGCLSQVIDIVSCLSVENLLLNPSPEERDEVNERRLSLCNAGKRYGDLIMLKELFDIYFYELGKSQDASSERNDWCKGLCISIRGFKNVIRVRDQLRVYCKRLFSSISEEDEESKKIGEDGELISKILKCFLTGFIKNTAIGMPDRSYRTVSTGEPISIHPSSMLFMNKSCPGIMYTEYVFTTKGYARNVSRIELSWLQEVVTNAAAVAKQKVSDSK | failed |
| MAAPVVVAPAINLQHMDLPEGNEDVAAVLQTSTQRWLNAAEWSILYNNHNLFPESNSFTIPIEVEGLYRVDNRFNQDSNTWRNTSAPSTCKNAINFYNVRIATGLYRFDDDGDIVMDAEVQGGWVLCRKTVRNRGGGVLTFAHYMWVLV | failed |
| MAARTLPDRFIARAPVPADAPAIARLIAACQEADGDEPDASAEEVLRDWEGLDLGQEAVLVVAPDGEAAAYADVLNRRYVQLSVYGYVHPRFRGMGLGTWLVQWGEEWIQDRMHLAPAEAQVTVQHYIRASSTSALRLMEQHGYRPVRDIWVMAITLDQPPPAPEWPEGITARTFVPGLDERATYEAVEEAFGDIWGRPPSTFERWLSMTQSERKDPELWLLAVETDSGHIVGTCLGQETAGKGWIGSVGVRRPWRGRGIALALLQEVFGVYYRRGVREVELSVDAESRTGAPRLYRRAGMHVKHRYVLHRKEIRPGIDLSTTAAHS | not failed |
| MAASDSRNNRADEPGFVVQPKGEHRVIIVWLHDKDERSSDSLQFVEQLNLKNVKWICPSLVFPDSFIKGVGGLGMGAAVALHFATSCALNHYTINPRVVVGISGWLSNSGSLKRSIESASHGAPARAASQSIFITHGICKSNRLLFQCDSVPHPCDCGEEAVLSLREAGFRDVKFTPFARFGPTAHENNRNVMVKSWLEEKLQLDVTIP | failed |
| MAASSACLVGNGLSVNTTTKQRLSKHFSGRQTSFSSVIRTSKVNVVKASLDGKKKQEGRRDFLKILLGNAGVGLVASGKANADEQGVSSSRMSYSRFLEYLDKDRVNKVDLYENGTIAIVEAVSPELGNRVERVRVQLPGLSQELLQKLRAKNIDFAAHNAQEDQGSVLFNLIGNLAFPALLIGGLFLLSRRSGGGMGGPGGPGNPLQFGQSKAKFQMEPNTGVTFDDVAGVDEAKQDFMEVVEFLKKPERFTAVGAKIPKGVLLIGPPGTGKTLLAKAIAGEAGVPFFSISGSEFVEMFVGVGASRVRDLFKKAKENAPCIVFVDEIDAVGRQRGTGIGGGNDEREQTLNQLLTEMDGFEGNTGVIVVAATNRADILDSALLRPGRFDRQVSVDVPDVKGRTDILKVHAGNKKFDNDVSLEIIAMRTPGFSGADLANLLNEAAILAGRRARTSISSKEIDDSIDRIVAGMEGTVMTDGKSKSLVAYHEVGHAVCGTLTPGHDAVQKVTLIPRGQARGLTWFIPSDDPTLISKQQLFARIVGGLGGRAAEEIIFGDSEVTTGAVGDLQQITGLARQMVTTFGMSDIGPWSLMDSSAQSDVIMRMMARNSMSEKLAEDIDSAVKKLSDSAYEIALSHIKNNREAMDKLVEVLLEKETIGGDEFRAILSEFTEIPPENRVPSSTTTTPASAPTPAAV | not failed |
| MAATGVDKDRPRAMTSTTYLGLLLVGIQVLGFVAAIHAVLTVRTAQGAIAWATSLVFMPYLTLLPYLVFGRSRFDAYIEARRQANREMHLAAAELDWRPWVEEALAARQVSGYKGLKALVRMTRTPTLANNRVRLLVNGEASFEAMFKAISAARQVILVQFFIVRDDALGQRLQQLLLERAANGVEVFFLYDAIGSHALPHRYVERLRQGGVQMHGFSTGSGMLNRFQVNFRNHRKVVVVDGECGFVGGHNVGVEYLGEKPPLAPWRDTHMELRGPAVACLQESFAEDWYWATHSLPPLILPPQYDSEGALCQVVASGPADAQETCSLFFVEMINAAHERVWITSPYFVPDEAVMAALRLAVLRGVDVRLLIPSRPDHRTVYAASSLYALEAIRAGVKVFRYQPGFLHQKVVLVDRDTAAVGSANLDNRSFRLNFEVMVVTVDEGFAGEVEAMLEADFAESLEFTPEDRRSVRRLQQLGMRVARLVSPIL | failed |
| MAAYGLYTHIASNKLRSMLLLAGLFALVYVLVYAGALVAEVVINGNETVAFYLSHAFLDLKVAAPVATVVTAVWVVIAYFFHQSMIDAVTGGHDVTRKEEPRLYNLLENLCISRGITMPKLKIMESPALNAFATGLNPRQYSITVTTGLLNALNDKEIEAVLGHELTHIKNGDVQLMVVAVIIAGVVGFFGELFFRLFTNLSWNSGGSWSSGSSSSRSSSSSSDSKNSGGGAVIVIIIAVVLIVVAWLMSQVVKLALSRSREYLADAGSVELTKDPDAMISALRKIENRGELPGATSAVMELCVDNPREGFADLFATHPSVQSRVDALVKFAGGHDPGPLPDPTDETEQPEAQGAPQDAPPPLSQRPWGDAAGPANPPPVPAPSPSGTTAGNPIGNPMGPWGRH | failed |
| MACIHIESSHPPAWKTHSVQENKPANADDISNTTLPEHHDGGDGGIQETWAAIGDSGGRGGGYFAGESRKKLEKKKSQVLLEGYALDDQDDLTRAKSLTDDDLEELKGCLDLGFGFSYDEIPELCNTLPALELCYSMSQKFLDDKQQNHHKSQEEDDSSPPPTTTAPIANWKISSPAELESIFIFEPEKDRLCKNEVSAIVR | failed |
| MACNTCKMCESADKKLESFVASKDVETAFHRTEDQKVKCGFGLQGVCCRLCSNGPCRVTPKSPRGICGADADTIVARNFLRAVASGAACYLHVVENTAKNLKNVGITKGVVKGEKTLNQLAEMFGIESDEKYDKCIKVADKVINDLYKSRDDKMELVEKIAYAPRVKKWKELGIMPGGAKSEVFDAIVKSSTNLNSDPVDMLVNCLNLGISTGLYGLTLTNLLNDVMLGEPVIRMAPVGFNVIDPDYINIMITGHQHSTFANFQDRLKDEDVIKLAQSVGAKGFKLVGCTCVGQDLQLRGEHYQEVFAGHAGNNFTSEAVLSTGAIDIVLSEFNCTIPGLEPIADKYKVKMVCLDDVAKKANAEYIGLDRSKLDELSNTLIEKALESYKERRGSIEIDIPKDHGFEQSLTGVSEKNLKAFLGDSWKPLINLIAEGKIKGVAAVVGCSNMTAGGHDVNTVELTKELIKKDIIVLSAGCSTGGLENVGLMSPGAEELAGENLKEVCKTLGIPPVLNFGPCLAIGRLEIVATELAAELGIDLPQLPLVLSAPQWLEEQALADGAFGLALGLPLHLALPPFITGGKLVTEVLTEKLKDLTGGHVIVNPDPKSSANQLEEIIIDRRKNLGLKDVECNA | failed |
